Numbered stars: 1 amine (or outer) side, 2 acyl side, 3 side chain; on linkers, the order of the positions; unused ones are H or OH. Bridge positions count the residues as written; N and C are the ends. Side chains are listed from the residue outwards. Ends that are not written are not given here. * marks the point of attachment. C20 diacid = O=C(O)CCCCCCCCCCCCCCCCCCC(=O)*; γGlu = O=C(O)[C@H](CCC(=O)[*:2])N[*:1]; AEEA = NCCOCCOCC(=O)O
Key:
[1] = target: T1, human calcitonin receptor (human, UniProt P30988 25-474); experiment: SPA radioligand competition (125I-calcitonin), membranes of BHK cells with human calcitonin receptor
T1 construct: whole, on cells; also called hCTR; hCT
T1 sequence (looked up): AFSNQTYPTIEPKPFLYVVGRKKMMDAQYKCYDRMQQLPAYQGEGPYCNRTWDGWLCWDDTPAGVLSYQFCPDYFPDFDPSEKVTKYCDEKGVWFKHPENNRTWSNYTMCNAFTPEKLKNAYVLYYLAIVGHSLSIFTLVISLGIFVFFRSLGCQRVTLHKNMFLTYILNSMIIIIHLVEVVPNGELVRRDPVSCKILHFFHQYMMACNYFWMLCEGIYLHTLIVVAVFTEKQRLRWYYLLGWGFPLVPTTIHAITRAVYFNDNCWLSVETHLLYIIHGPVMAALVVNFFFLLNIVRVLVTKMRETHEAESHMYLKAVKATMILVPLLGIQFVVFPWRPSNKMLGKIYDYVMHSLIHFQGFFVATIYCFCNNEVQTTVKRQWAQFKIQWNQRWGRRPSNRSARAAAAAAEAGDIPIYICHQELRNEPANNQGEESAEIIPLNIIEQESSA
Method: Membranes were prepared in the following way; the cells were rinsed with PBS and incubated with Versene for approximately 5 min before harvesting. The cells were flushed with PBS and the cell-suspension was centrifuged for 5 min at 1000 rpm. Cells were homogenized (Ultrathurrax) in a buffer containing 20 mM Na-HEPES and 10 mM EDTA (pH 7.4) and centrifuged at 20.000 rpm for 15 min. The resulting pellet was resuspended, homogenized and centrifuged (20.000 rpm, 15 min) in a buffer containing 20 mM Na-HEPES and 0.1 mM EDTA (pH 7.4, buffer 2). The resulting pellet was resuspended in buffer 2 and protein concentration was measured (BCA protein Assay, Pierce). The homogenate was kept cold during the whole procedure. The membranes were kept at −80° C. until use. Assay was performed in a 384 well Optiplate (PerkinElmer) in a total volume of 40 ul. Membranes were mixed with SPA beads. Final concentration of membranes 35 ng/μL final and Final concentration of SPA beads was 0.05 mg/well. Test-compounds were dissolved in DMSO and further diluted in assay buffer (50 mM Hepes, pH 7.4, 1 mM CaCl2, 5 mM MgCl₂, 0.1% OA and 0.02% Tween20). […] The final mixture was incubated for 120 min with shaking at 400 rpm at 25° C. prior to centrifugation (1500 rpm, 10 min). Samples were analyzed on TopCounter™ (Packard). The […] was calculated using (one site binding competition analysis) GraphPad Prism5 as a measure of receptor affinity.

[2] = target: T1, human calcitonin receptor; experiment: ratio of IC50 at human calcitonin receptor to IC50 at human amylin receptor (SPA competition assays)
Method: The resulting pellet was resuspended, homogenized and centrifuged (20.000 rpm, 15 min) in a buffer containing 20 mM Na-HEPES and 0.1 mM EDTA (pH 7.4, buffer 2). The resulting pellet was resuspended in buffer 2 and protein concentration was measured (BCA protein Assay, Pierce). The homogenate was kept cold during the whole procedure. The membranes were kept at −80° C. until use. The assay was performed in a 384 well Optiplate (PerkinElmer) in a total volume of 40 ul. Membranes were mixed with SPA beads. Final concentration of membranes 35 ng/μL final and SPA beads was 0.05 mg/well. Test-compounds were dissolved in DMSO and further diluted in assay buffer (50 mM Hepes, pH 7.4, 1 mM CaCl2, 5 mM MgCl₂, 0.1% OA and 0.02% Tween20). […] The final mixture was incubated with shaking at 400 rpm for 120 min at 25° C. prior to centrifugation (1500 rpm, 10 min). Samples were analyzed on TopCounter™ (Packard). The IC₅₀ was calculated using (one site binding competition analysis) GraphPad Prism5 as a measure of receptor affinity.
Membranes were prepared in the following way; the cells were rinsed with PBS and incubated with Versene for approximately 5 min before harvesting. The cells were flushed with PBS and the cell-suspension was centrifuged for 5 min at 1000 rpm. Cells were homogenized (Ultrathurrax) in a buffer containing 20 mM Na-HEPES and 10 mM EDTA (pH 7.4) and centrifuged at 20.000 rpm for 15 min. The resulting pellet was resuspended, homogenized and centrifuged (20.000 rpm, 15 min) in a buffer containing 20 mM Na-HEPES and 0.1 mM EDTA (pH 7.4, buffer 2). The resulting pellet was resuspended in buffer 2 and protein concentration was measured (BCA protein Assay, Pierce). The homogenate was kept cold during the whole procedure. The membranes were kept at −80° C. until use. Assay was performed in a 384 well Optiplate (PerkinElmer) in a total volume of 40 ul. Membranes were mixed with SPA beads.

| Binder | IC50 [1] [nM] | Ratio hCT/hAmylin binding [2] |
| --- | --- | --- |
| K([AEEA-AEEA-γGlu-C20 diacid])CNTATCATQRLANFLRHSSPNFGAIPSSTNVGPNTY-NH2 (disulfide 2-7; N-terminus assumed; SMILES CC[C@H](C)[C@H](NC(=O)[C@H](C)NC(=O)CNC(=O)[C@H](Cc1ccccc1)NC(=O)[C@H](CC(N)=O)NC(=O)[C@@H]1CCCN1C(=O)[C@H](CO)NC(=O)[C@H](CO)NC(=O)[C@H](Cc1c[nH]cn1)NC(=O)[C@H](CCCNC(=N)N)NC(=O)[C@H](CC(C)C)NC(=O)[C@H](Cc1ccccc1)NC(=O)[C@H](CC(N)=O)NC(=O)[C@H](C)NC(=O)[C@H](CC(C)C)NC(=O)[C@H](CCCNC(=N)N)NC(=O)[C@H](CCC(N)=O)NC(=O)[C@@H](NC(=O)[C@H](C)NC(=O)[C@@H]1CSSC[C@H](NC(=O)[C@@H](N)CCCCNC(=O)COCCOCCNC(=O)COCCOCCNC(=O)CC[C@H](NC(=O)CCCCCCCCCCCCCCCCCCC(=O)O)C(=O)O)C(=O)N[C@@H](CC(N)=O)C(=O)N[C@@H]([C@@H](C)O)C(=O)N[C@@H](C)C(=O)N[C@@H]([C@@H](C)O)C(=O)N1)[C@@H](C)O)C(=O)N1CCC[C@H]1C(=O)N[C@@H](CO)C(=O)N[C@@H](CO)C(=O)N[C@H](C(=O)N[C@@H](CC(N)=O)C(=O)N[C@H](C(=O)NCC(=O)N1CCC[C@H]1C(=O)N[C@@H](CC(N)=O)C(=O)N[C@H](C(=O)N[C@@H](Cc1ccc(O)cc1)C(N)=O)[C@@H](C)O)C(C)C)[C@@H](C)O, also called compound 98) | 6.74 | 74.1 |
| K([AEEA-γGlu-C20 diacid])CNTATCATQRLAAFLRHSSPNFGAIPSSTPVGSNTY-NH2 (disulfide 2-7; N-terminus assumed; SMILES CC[C@H](C)[C@H](NC(=O)[C@H](C)NC(=O)CNC(=O)[C@H](Cc1ccccc1)NC(=O)[C@H](CC(N)=O)NC(=O)[C@@H]1CCCN1C(=O)[C@H](CO)NC(=O)[C@H](CO)NC(=O)[C@H](Cc1c[nH]cn1)NC(=O)[C@H](CCCNC(=N)N)NC(=O)[C@H](CC(C)C)NC(=O)[C@H](Cc1ccccc1)NC(=O)[C@H](C)NC(=O)[C@H](C)NC(=O)[C@H](CC(C)C)NC(=O)[C@H](CCCNC(=N)N)NC(=O)[C@H](CCC(N)=O)NC(=O)[C@@H](NC(=O)[C@H](C)NC(=O)[C@@H]1CSSC[C@H](NC(=O)[C@@H](N)CCCCNC(=O)COCCOCCNC(=O)CC[C@H](NC(=O)CCCCCCCCCCCCCCCCCCC(=O)O)C(=O)O)C(=O)N[C@@H](CC(N)=O)C(=O)N[C@@H]([C@@H](C)O)C(=O)N[C@@H](C)C(=O)N[C@@H]([C@@H](C)O)C(=O)N1)[C@@H](C)O)C(=O)N1CCC[C@H]1C(=O)N[C@@H](CO)C(=O)N[C@@H](CO)C(=O)N[C@H](C(=O)N1CCC[C@H]1C(=O)N[C@H](C(=O)NCC(=O)N[C@@H](CO)C(=O)N[C@@H](CC(N)=O)C(=O)N[C@H](C(=O)N[C@@H](Cc1ccc(O)cc1)C(N)=O)[C@@H](C)O)C(C)C)[C@@H](C)O, also called compound 72) | 42.4 | 247 |
